Values joined by “and” are separate entries in the source; they are usually repeats but may differ in a detail not shown here. Equal values may be shown once. Square brackets hold non-standard residues; d marks the D form. Ends that are not written are not given here. Peptide text beside a SMILES is read from it. Phe(4-CN) = N#Cc1ccc(C[C@H](N)C(=O)O)cc1; Phe(3-Me) = Cc1cccc(C[C@H](N)C(=O)O)c1 Where only a bound is given, the exact number is not on record here.

This is an account of results in PMC7529893, “Structural basis for substrate recognition and chemical inhibition of oncogenic MAGE ubiquitin ligases” (Nature Communications, 2020).

Assay [1] concerns the target T1, GST-MAGE-A11 MHD (Homo sapiens, UniProt P43364).
T1 construct: GST-MAGE-A11 MHD (human MAGE-A11 MHD amino acid 218-429); made in house; host or cells: E. coli BL21(DE3)
T1 sequence (P43364 218-429): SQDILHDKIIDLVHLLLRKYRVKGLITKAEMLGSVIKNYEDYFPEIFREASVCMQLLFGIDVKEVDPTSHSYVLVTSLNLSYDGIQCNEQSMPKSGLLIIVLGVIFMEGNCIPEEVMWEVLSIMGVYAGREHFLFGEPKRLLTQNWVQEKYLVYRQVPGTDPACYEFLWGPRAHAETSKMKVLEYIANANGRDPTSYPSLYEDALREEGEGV
Kind of assay: TR-FRET competition assay of PCF11 peptides against GST-MAGE-A11 MHD / FAM-PCF11_4. To be noted: Fig. 1c, panel of eight PCF11 peptides; read-out: IC50, binding of PCF11 peptide to GST-MAGE-A11 by TR-FRET. The procedure:
The TR-FRET assay buffer with a formula of 50 mM Tris pH 7.5, 20 mM MgCl2, 0.1 mg/ml BSA and 1 mM DTT was freshly prepared before each experiment. All TR-FRET assays were performed in black 384-well plates with 20 µl/well assay volume in the TR-FRET assay buffer at room temperature (~25 °C). All peptides or compounds were solubilized in DMSO. To test the competitive activity of peptides or compounds against the interaction between GST-MAGE-A11 MHD and FAM-PCF11_4 peptide, 10 µl/well peptide or compound at specified concentration was dispensed into a black 384-well low volume plate, followed by 5 µl/well FAM-PCF11_4 (800 nM), 5 µl/well Tb-anti-GST (20 nM), and GST-MAGE-A11 MHD (20 nM). The assay components in each well was then mixed by shaking the plate on an IKA MTS 2/4 digital microtiter plate shaker (IKA Works; Wilmington, NC, USA) for 1 min. The plate was further centrifuged in an Eppendorf 5810 centrifuge with an A-4-62 swing-bucket rotor (Eppendorf AG, Hamburg, Germany) at 201 g for 30 s. The plate was then incubated for 90 min with a lid to avoid light exposure to the assay components. After incubation, the fluorescent emission signals at 520 nm and 490 nm channels of individual wells were measured with a PHERAstar FS plate reader (BMG Labtech; Durham, NC, USA) by using a 340 nm excitation filter, 100 µs delay time, and 200 µs integration time. The TR-FRET fluorescence emission ratio (TR-FRET signal) for each well was presented as 10,000 × 520 nm/490 nm, which was used directly for curve fitting, or further converted to %Inhibition based on the respective positive and negative controls. The graphic software GraphPad Prism 4.81 (GraphPad Software; La Jolla, CA, USA) was used to generate curves and derive IC50 values of tested peptides or compounds, if applicable.
TR-FRET inhibitory activity characterization of a panel of PCF11 peptides against the interaction between GST-MAGE-A11 MHD and FAM-PCF11_4 was performed as follows. In a 20-µl/well assay volume, dilutions of PCF11_1 to PCF11_8 peptides (concentrations ranged from 3.1 nM to 100 µM for peptides PCF11_4, PCF11_5, PCF11_6 and PCF11_8 in a 1-to-2 dilution pattern for 16 concentration levels, and ranged from 48.9 nM to 100 µM for peptides of PCF11_1, PCF11_2, PCF11_3, and PCF11_7 in a 1-to-2 dilution pattern for 12 concentration levels), 200 nM FAM-PCF11_4, 5 nM Tb-anti-GST and 5 nM GST-MAGE-A11 were mixed together and incubated for 90 min before the TR-FRET signal for each well was measured. The final DMSO concentration was 1.1% (v/v). […] The signal of each peptide-treated well (Signalpeptide) was normalized to the positive and negative controls to derive %inhibition of the peptide at a specific concentration with Eq. (1). Where applicable, the %Inhibition data were fit into a Sigmoidal dose response equation to derive IC50 values.1 %Inhibition=100%−100%×(Signalpeptide−SignalDMSOwithoutGST-MAGEA11)/SignalDMSO−SignalDMSOwithoutGST-MAGEA11.
On the technique in general: TR-FRET usually uses a lanthanide donor and a delayed reading to cut background.

In assay [2] the target is T2, GST-MAGE-A11 MHD (human MAGE-A11 MHD amino acid 218-429) (human, UniProt P43364 218-429).
T2 chain: T1 sequence (P43364 218-429)
Briefly: FRET.

Assay [3] has as its target T2, GST-MAGE-A11 MHD (human MAGE-A11 MHD …). Kind of assay: FRET.
Assay [4] addresses T3, GST-MAGE-A11 MHD (human MAGE-A11 MHD amino acid 218-429) (human, UniProt P43364 218-429).
T3 construct: also called recombinant GST-MAGE-A11; source: E. coli BL21(DE3), purified (GSTrap, Resource Q)
T3 sequence (looked up): T1 sequence (P43364 218-429)
Kind of assay: AlphaScreen or HTRF; TR-FRET competition: unlabelled peptide titrated against 200 nM FAM-PCF11_4, 5 nM Tb-anti-GST and 5 nM GST-MAGE-A11 MHD; 50 mM Tris pH 7.5, 20 mM MgCl2, 0.1 mg/ml BSA, 1 mM DTT; room temperature (~25 °C), 90 min. Particulars: both partners purified.

Assay [5] concerns the target T4, MAGE-A11 MHD (218-429), as part of the crystallised fusion (human, UniProt P43364 218-429).
T4 construct: In the crystal it follows PCF11 677-701 and the linker GGSGRP (whole chain: m25); also called MAGE-A11 MHD (S218 to C-terminus); source: E. coli BL21(DE3), purified, on one chain with the PCF11 degron
T4 sequence (looked up): T1 sequence (P43364 218-429)
Briefly: crystal structure; PCF11 677-701 fused by GGSGRP to the N-terminus of MAGE-A11 MHD 218-429; sitting drop, 20 °C, 0.2 M Na acetate, 0.1 M Bis Tris propane pH 7.5, 20% PEG 3350; four protomers in the P 1 cell. Particulars: both partners purified.

As usually defined, the IC50 is the point on the concentration scale where inhibition reaches its midpoint. On to `CC[C@H](C)[C@H](N)C(=O)N[C@H](C(=O)N[C@@H](CCC(N)=O)C(=O)N[C@@H](CC(=O)O)C(=O)N[C@@H](CC(=O)O)C(=O)N[C@@H](Cc1ccccc1)C(=O)N[C@@H](CC(C)C)C(=O)N[C@H](C(=O)N[C@H](C(=O)N[C@H](C(=O)N[C@@H](Cc1c[nH]cn1)C(=O)N[C@@H](CCC(N)=O)C(=O)N[C@H](C(=O)N[C@@H](CCCNC(=N)N)C(=O)N[C@@H](CCC(N)=O)C(=O)N[C@@H](CC(C)C)C(=O)N[C@@H](Cc1ccccc1)C(=O)N[C@@H](CCC(N)=O)C(=O)N[C@@H](Cc1ccc(O)cc1)C(=O)N[C@@H](CCC(N)=O)C(=O)N[C@@H](CCC(=O)O)C(=O)NCC(=O)N[C@H](C(=O)N[C@@H](CCCNC(=N)N)C(=O)N[C@@H](CCC(=O)O)C(=O)O)C(C)C)[C@@H](C)CC)C(C)C)C(C)C)C(C)C)[C@@H](C)O` [PCF11_4] (H-ITQDDFLVVVHQIRQLFQYQEGVRE-OH; N-terminus assumed), for which, in assay [1], the IC50 stood at 59 nM.

`CC(C)C[C@H](NC(=O)[C@H](CC(C)C)NC(=O)[C@H](CCC(=O)O)NC(=O)[C@H](CCCNC(=N)N)NC(=O)[C@H](CCCCN)NC(=O)[C@H](CO)NC(=O)[C@H](C)NC(=O)[C@H](CC(C)C)NC(=O)[C@@H](NC(=O)[C@H](CC(C)C)NC(=O)[C@H](CCC(=O)O)NC(=O)[C@H](CCCCN)NC(=O)[C@@H]1CCCN1)[C@@H](C)O)C(=O)N[C@@H](CCC(N)=O)C(=O)N[C@@H](CCCCN)C(=O)O` [PCF11_1] (H-PKELTLASKRELLQK-OH; N-terminus assumed): the concentration for half-maximal inhibition (IC50) in assay [1] is above 50000 nM. The same measure, in the same setting: to `CC[C@H](C)[C@H](NC(=O)[C@H](CCC(N)=O)NC(=O)[C@H](Cc1c[nH]cn1)NC(=O)[C@@H](NC(=O)[C@@H](NC(=O)[C@@H](NC(=O)[C@H](CC(C)C)NC(=O)[C@H](Cc1ccccc1)NC(=O)[C@H](CC(=O)O)NC(=O)[C@H](CC(=O)O)NC(=O)[C@@H](N)CCC(N)=O)C(C)C)C(C)C)C(C)C)C(=O)N[C@@H](CCCNC(=N)N)C(=O)N[C@@H](CCC(N)=O)C(=O)N[C@@H](CC(C)C)C(=O)N[C@@H](Cc1ccccc1)C(=O)N[C@@H](CCC(N)=O)C(=O)N[C@@H](Cc1ccc(O)cc1)C(=O)N[C@@H](CCC(N)=O)C(=O)N[C@@H](CCC(=O)O)C(=O)NCC(=O)O` [PCF11_5] (H-QDDFLVVVHQIRQLFQYQEG-OH; N-terminus assumed) belongs 77 nM; to `CC[C@H](C)[C@H](NC(=O)[C@H](CCC(=O)O)NC(=O)CNC(=O)[C@H](CO)NC(=O)[C@H](C)NC(=O)[C@H](CC(C)C)NC(=O)[C@H](CCCNC(=N)N)NC(=O)[C@H](CCC(=O)O)NC(=O)[C@H](CO)NC(=O)[C@@H](NC(=O)[C@H](CCCCN)NC(=O)[C@H](CCC(N)=O)NC(=O)[C@H](CC(C)C)NC(=O)[C@@H](N)CC(C)C)[C@@H](C)O)C(=O)N[C@H](C(=O)O)[C@@H](C)O` [PCF11_2] (H-LLQKTSERLASGEIT-OH; N-terminus assumed), above 50000 nM; to `CC[C@H](C)[C@H](NC(=O)[C@H](CCC(N)=O)NC(=O)[C@H](Cc1c[nH]cn1)NC(=O)[C@@H](N)C(C)C)C(=O)N[C@@H](CCCNC(=N)N)C(=O)N[C@@H](CCC(N)=O)C(=O)N[C@@H](CC(C)C)C(=O)N[C@@H](Cc1ccccc1)C(=O)N[C@@H](CCC(N)=O)C(=O)N[C@@H](Cc1ccc(O)cc1)C(=O)N[C@@H](CCC(N)=O)C(=O)N[C@@H](CCC(=O)O)C(=O)NCC(=O)N[C@H](C(=O)N[C@@H](CCCNC(=N)N)C(=O)O)C(C)C` [PCF11_7] (H-VHQIRQLFQYQEGVR-OH; N-terminus assumed), above 50000 nM.

B1: PCF11_6 peptide F682A (peptide)
chain: ALVVVHQIRQLFQYQ
modifications: same inferred limits as m7
In assay [2], B1 came in with a half-maximal inhibitory concentration (IC50) of 570 nM.

B2: PCF11_6 peptide I689A (peptide)
chain: FLVVVHQARQLFQYQ
As to B2, in assay [2], it took 1020 nM to reach half-maximal inhibition (IC50).

B3: PCF11_6 peptide (peptide)
chain: FLVVVHQIRQLFQYQ
modifications: exact ends are only in Fig. 1b; 682-696 is inferred from 'three overlapping peptides centered on PCF11 amino acids 682-696' (the later 13-residue model peptide is 682-694)
For the molecule B3, in assay [2], the IC50 was 70 nM and 65 nM.

B4: PCF11 peptide (FLVVVHQIRQLFQ) containing phenylalanine at position 12 (peptide)
peptide: FLVVVHQIRQLFQ
notes: PCF11 degron, human; position +1 is F682 and position +12 is F693; also called model 13 amino acid PCF11 peptide degron; natural PCF11 degron peptide; source: synthetic peptide
For the molecule B4, in assay [3], the IC50 was determined as 60.4 nM. Besides, the binding result in assay [4] is reported as “binds”.

B5: PCF11 peptide (FLVVVHQIRQLF*Q) containing 4-cyano-phenylalanine at position 12 (peptide)
peptide: FLVVVHQIRQL[Phe(4-CN)]Q
notes: PCF11 degron, human; the phenylalanine at position 12 (F693) is 4-cyano-phenylalanine; also called 4-cyano-phenylalanine variant; source: synthetic peptide
For B5, the IC50 in assay [4] was found to be 663 nM.

B6: PCF11 peptide (FLVVVHQIRQLF*Q) containing 3-methyl-phenylalanine at position 12 (peptide)
peptide: FLVVVHQIRQL[Phe(3-Me)]Q
notes: PCF11 degron, human; the phenylalanine at position 12 (F693) is 3-methyl-phenylalanine; also called 3-methyl-phenylalanine variant; source: synthetic peptide
Take B6: the IC50 in assay [4] worked out at 1.7 nM.

B7: PCF11_6 peptide R690A (peptide)
chain: FLVVVHQIAQLFQYQ
As to B7, half-maximal inhibition in assay [2] (IC50) was put at 15600 nM.

B8: PCF11_6 peptide L692A (peptide)
chain: FLVVVHQIRQAFQYQ
B8 returned an IC50 in assay [2] of 540 nM.

B9: PCF11 degron peptide (human PCF11 amino acid 677-701), as part of the crystallised fusion (peptide, UniProt O94913 677-701, looked up)
chain: ITQDDFLVVVHQIRQLFQYQEGVRE
notes: PCF11, human, amino acids 677-701; In the crystal it is joined by the linker GGSGRP to the N-terminus of m27 (whole chain: m25); also called PCF11 peptide; source: E. coli BL21(DE3), purified, on one chain with MAGE-A11 MHD
For B9, in assay [5], the binding result is “binds”.

B10: PCF11_6 peptide F693A (peptide)
chain: FLVVVHQIRQLAQYQ
As for B10, in assay [2], half-maximal inhibition (IC50) was put at 2140 nM.
